Measured values: US20240270821A1, “GIP/GLP1/GCG TRI-RECEPTOR AGONISTS AND USES THEREOF” (priority 2023, published 2024)

T1: human GIP receptor (human) (UniProt P48546)
T1 sequence (looked up): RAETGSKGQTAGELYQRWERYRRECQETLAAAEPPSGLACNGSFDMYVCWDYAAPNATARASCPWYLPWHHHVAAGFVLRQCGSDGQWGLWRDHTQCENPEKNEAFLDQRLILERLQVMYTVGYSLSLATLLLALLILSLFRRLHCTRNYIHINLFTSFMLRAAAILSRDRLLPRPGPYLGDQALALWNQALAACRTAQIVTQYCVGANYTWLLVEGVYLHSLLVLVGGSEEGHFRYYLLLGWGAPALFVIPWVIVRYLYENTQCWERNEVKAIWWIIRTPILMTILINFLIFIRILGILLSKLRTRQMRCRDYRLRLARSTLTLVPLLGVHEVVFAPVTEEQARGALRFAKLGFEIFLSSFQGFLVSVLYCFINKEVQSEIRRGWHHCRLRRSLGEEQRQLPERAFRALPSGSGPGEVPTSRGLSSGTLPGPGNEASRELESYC


Assays:
Test in all cases: cell-based or functional assay
hGLP-1R = hGLP-1R (Homo sapiens, UniProt P43220)
hGLP-1R, sequence (P43220 24-463): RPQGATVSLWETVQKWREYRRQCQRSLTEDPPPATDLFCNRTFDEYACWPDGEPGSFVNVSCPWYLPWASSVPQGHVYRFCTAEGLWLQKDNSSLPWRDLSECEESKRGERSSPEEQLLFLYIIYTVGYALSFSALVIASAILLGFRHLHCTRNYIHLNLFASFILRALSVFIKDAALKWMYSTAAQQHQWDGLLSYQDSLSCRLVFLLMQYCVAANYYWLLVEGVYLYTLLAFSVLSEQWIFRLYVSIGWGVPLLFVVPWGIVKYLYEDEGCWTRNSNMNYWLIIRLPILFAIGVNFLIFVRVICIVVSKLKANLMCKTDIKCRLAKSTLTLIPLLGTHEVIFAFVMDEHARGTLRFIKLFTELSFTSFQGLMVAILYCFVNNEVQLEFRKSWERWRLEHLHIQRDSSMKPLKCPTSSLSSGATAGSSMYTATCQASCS

[1] = biological target: human glucagon receptor (human) (UniProt P47871)
human glucagon receptor (human), sequence (P47871 26-477): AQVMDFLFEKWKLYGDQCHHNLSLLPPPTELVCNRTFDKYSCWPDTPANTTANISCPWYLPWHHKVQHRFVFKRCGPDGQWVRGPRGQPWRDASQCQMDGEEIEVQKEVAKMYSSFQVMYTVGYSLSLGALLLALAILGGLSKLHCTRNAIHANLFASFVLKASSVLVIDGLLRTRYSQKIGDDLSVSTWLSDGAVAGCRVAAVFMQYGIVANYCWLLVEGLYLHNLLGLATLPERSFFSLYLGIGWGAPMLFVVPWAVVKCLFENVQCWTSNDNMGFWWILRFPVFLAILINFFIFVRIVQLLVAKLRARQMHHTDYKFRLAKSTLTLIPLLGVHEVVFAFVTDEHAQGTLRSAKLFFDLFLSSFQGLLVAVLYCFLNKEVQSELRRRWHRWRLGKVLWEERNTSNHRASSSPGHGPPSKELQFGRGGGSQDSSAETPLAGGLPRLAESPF

[2] = biological target: T1, human GIP receptor (human)

| Binder | cAMP Rel EC50, nM (1% HSA) (hGLP-1R) | cAMP Rel EC50, nM (1% HSA) [1] | cAMP Rel EC50, nM (1% HSA) [2] | Relative cAMP EC50 (hGLP-1R) | Relative cAMP EC50 [1] | Relative cAMP EC50 [2] | cAMP Rel EC50, nM (in the presence of 1% HSA) (hGLP-1R) | cAMP Rel EC50, nM (in the presence of 1% HSA) [1] | cAMP Rel EC50, nM (in the presence of 1% HSA) [2] |
| --- | --- | --- | --- | --- | --- | --- | --- | --- | --- |
| YXQGTFTSDXSXXLDKKAQXAFIEXLIEGGPSSGAPPPSGSEE (Aib, 4Pal, Me4Pal, Orn, alpha-methyl-Leu, lipidated Lys, amide; synthetic construct; SITE 2: note = 2-Aminoisobutyric Acid; SITE 10: note = 3-(4-Pyridyl)-L-alanine; SITE 12: note = L-ornithine; SITE 13: note = alpha-methyl-leucine; SITE 17: note = Lysine is chemically modified through conjugation of the epsilon-amino group of the Lysine side chain with (2-[2-(2-) [Example 955] | 1380 nM | 366 nM | 42.3 nM |  |  |  |  |  |  |
| YXQGTFTSDXSXXLDKKAQXAFIEXLIEGGPSSGAPPPSGSEE (Aib, 4Pal, Orn, Me4Pal, αMeY; acylated lysine; amide; synthetic construct; SITE 2: note = 2-Aminoisobutyric Acid; SITE 10: note = 3-(4-Pyridyl)-L-alanine; SITE 12: note = L-ornithine; SITE 13: note = alpha-methyl-leucine; SITE 17: note = Lysine is chemically modified through conjugation of the epsilon-amino group of the Lysine side chain with (gamma-Gl)) [Example 967] | 345 nM | 508 nM | 39.5 nM |  |  |  |  |  |  |
| YXQGTFTSDXSXXLDKKAQXAFIEXLIEGGPSSGAPPPSGSEE (Aib, 4Pal, Orn, αMeL, Me4Pal, acylated K, C-terminal amide; synthetic construct; SITE 2: note = 2-Aminoisobutyric Acid; SITE 10: note = 3-(4-Pyridyl)-L-alanine; SITE 12: note = L-ornithine; SITE 13: note = alpha-methyl-leucine; SITE 17: note = Lysine is chemically modified through conjugation of the epsilon-amino group of the Lysine side chain with (gamma-Gl)) [Example 958] | 850 nM | 340 nM | 27.1 nM |  |  |  |  |  |  |
| YXQGTFTSDXSQXLDKKAQXAFIEYLIAGGESSGAPPPSGSEE (non-natural residues, C18 diacid-(γGlu)2 acyl on K, C-terminal amide; synthetic construct; SITE 2: note = 2-Aminoisobutyric Acid; SITE 10: note = 3-(4-Pyridyl)-L-alanine; SITE 13: note = alpha-methyl-leucine; SITE 17: note = Lysine is chemically modified through conjugation of the epsilon-amino group of the Lysine side chain with (gamma-Glu)2-CO-(CH2)16-CO2H; SITE 20:) [Example 963] | 215 nM | 900 nM | 25.1 nM | 1.77 nM | 5.81 nM | 0.244 nM |  |  |  |
| YXQGTFTSDXSXXLDKKAQXAFIEYLIAGGPSSGAPPPSGSEE (Lys acylated (γGlu)2-C18 diacid; non-natural residues; C-amide; synthetic construct; SITE 2: note = 2-Aminoisobutyric Acid; SITE 10: note = 3-(4-Pyridyl)-L-alanine; SITE 12: note = L-ornithine; SITE 13: note = alpha-methyl-leucine; SITE 17: note = Lysine is chemically modified through conjugation of the epsilon-amino group of the Lysine side chain with (gamma-Gl)) [Example 961] | 216 nM | 342 nM | 13.6 nM | 2.52 nM | 2.96 nM | 0.167 nM |  |  |  |
| YXQGTFTSDXSXXLDKKAQXAFIEYLIAGGESSGAPPPSGSEE (Aib, 4Pal, Orn, αMeL, Me4Pal; acylated Lys; C-terminal amide; synthetic construct; SITE 2: note = 2-Aminoisobutyric Acid; SITE 10: note = 3-(4-Pyridyl)-L-alanine; SITE 12: note = L-ornithine; SITE 13: note = alpha-methyl-leucine; SITE 17: note = Lysine is chemically modified through conjugation of the epsilon-amino group of the Lysine side chain with (gamma-Gl)) [Example 964] | 267 nM | 324 nM | 21.4 nM | 2.67 nM | 2.75 nM | 0.288 nM |  |  |  |
| YXQGTFTSDXSRXLDKKAQXAFIEYLIAGGESSGAPPPSGSEE (C-terminal amide; lysine acylated with (γ-Glu)2-C18 diacid; synthetic construct; SITE 2: note = 2-Aminoisobutyric Acid; SITE 10: note = 3-(4-Pyridyl)-L-alanine; SITE 13: note = alpha-methyl-leucine; SITE 17: note = Lysine is chemically modified through conjugation of the epsilon-amino group of the Lysine side chain with (gamma-Glu)2-CO-(CH2)16-CO2H; SITE 20:) [Example 965] | 194 nM | 430 nM | 23.2 nM | 1.39 nM | 3.35 nM | 0.13 nM |  |  |  |
| YXQGTFTSDXSRXLDKKAQXAFIEXLIEGGPSSGAPPPSGSEE (Aib, 4Pal, αMeL, Me4Pal; acylated Lys; C-terminal amide; synthetic construct; SITE 2: note = 2-Aminoisobutyric Acid; SITE 10: note = 3-(4-Pyridyl)-L-alanine; SITE 13: note = alpha-methyl-leucine; SITE 17: note = Lysine is chemically modified through conjugation of the epsilon-amino group of the Lysine side chain with (gamma-Glu)2-CO-(CH2)16-CO2H; SITE 20:) [Example 959] | 503 nM | 316 nM | 24.5 nM |  |  |  |  |  |  |
| YXQGTFTSDXSQXLDKKAQXAFIEYLIAGGPSSGAPPPSGSEE (Aib, 4Pal, Me4Pal, αMeL; lipidated Lys; C-terminal amide; synthetic construct; SITE 2: note = 2-Aminoisobutyric Acid; SITE 10: note = 3-(4-Pyridyl)-L-alanine; SITE 13: note = alpha-methyl-leucine; SITE 17: note = Lysine is chemically modified through conjugation of the epsilon-amino group of the Lysine side chain with (gamma-Glu)2-CO-(CH2)16-CO2H; SITE 20:) [Example 960] | 161 nM | 813 nM | 14.1 nM | 1.51 nM | 5.5 nM | 0.124 nM |  |  |  |
| YXQGTFTSDXSQXLDKKAQXAFIEXLIEGGPSSGAPPPSGSEE (non-natural residues; Lys acylated C18 diacid; C-terminal amide; synthetic construct; SITE 2: note = 2-Aminoisobutyric Acid; SITE 10: note = 3-(4-Pyridyl)-L-alanine; SITE 13: note = alpha-methyl-leucine; SITE 17: note = Lysine is chemically modified through conjugation of the epsilon-amino group of the Lysine side chain with (gamma-Glu)2-CO-(CH2)16-CO2H; SITE 20:) [Example 957] | 747 nM | 947 nM | 25 nM |  |  |  |  |  |  |
| YXQGTFTSDXSXXLDXKAQXQFIEXLIEGGPSSGAPPPSGSEE (non-natural residues; (γGlu)2-C18 diacid on Lys; C-terminal amide; synthetic construct; SITE 2: note = 2-Aminoisobutyric Acid; SITE 10: note = 3-(4-Pyridyl)-L-alanine; SITE 12: note = L-ornithine; SITE 13: note = alpha-methyl-leucine; SITE 16: note = L-ornithine; SITE 17: note = Lysine is chemically modified through conjugation of the epsilon-amino group of the Lys) [Example 972] | 327 nM | 660 nM | 30.4 nM |  |  |  |  |  |  |
| YXQGTFTSDXSXXLDKKAQXAFIEXLIEGGPSSGAPPPSGSE (acylated Lys (γGlu)2-C18 diacid; non-natural residues; C-terminal amide; synthetic construct; SITE 2: note = 2-Aminoisobutyric Acid; SITE 10: note = 3-(4-Pyridyl)-L-alanine; SITE 12: note = L-ornithine; SITE 13: note = alpha-methyl-leucine; SITE 17: note = Lysine is chemically modified through conjugation of the epsilon-amino group of the Lysine side chain with (gamma-Gl)) [Example 966] | 257 nM | 581 nM | 35.9 nM |  |  |  |  |  |  |
| YXQGTFTSDFSXXLDKKAQXAFIEYLLAGGPSSGAPPPSGEX (synthetic construct; SITE 2: note = 2-Aminoisobutyric Acid; SITE 12: note = L-ornithine; SITE 13: note = alpha-methyl-leucine; SITE 17: note = Lysine is chemically modified through conjugation of the epsilon-amino group of the Lysine side chain with (2-[2-(2-Amino-ethoxy)-ethoxy]-acetyl)-(gamma-Glu)) [Example 91] |  |  |  | 3.39 nM | 9.13 nM | 0.243 nM | 356 nM | 1200 nM | 23.9 nM |
